The target of assay [1] is FcγRIIIaF158 (PX Therapeutics, His-tagged) (human) (UniProt P08637). In words: ELISA, purified IgG from YB2/0, vs R593 IgG-WT. A general note: ELISA stands for enzyme-linked immunosorbent assay.
Assay [2] has as its target FcγRIIaH131 (PX Therapeutics, His-tagged) (human) (UniProt P12318). Put plainly: ELISA, purified IgG from YB2/0, vs R593 IgG-WT.
Assay [3] deals with FcγRIIIaV158 (R&D system) (human) (UniProt P08637). In words: ELISA, purified IgG from YB2/0, vs R593 IgG-WT.
Sequence of FcγRIIIaV158 (R&D system) (human) (P08637 17-208 F176V limits assumed): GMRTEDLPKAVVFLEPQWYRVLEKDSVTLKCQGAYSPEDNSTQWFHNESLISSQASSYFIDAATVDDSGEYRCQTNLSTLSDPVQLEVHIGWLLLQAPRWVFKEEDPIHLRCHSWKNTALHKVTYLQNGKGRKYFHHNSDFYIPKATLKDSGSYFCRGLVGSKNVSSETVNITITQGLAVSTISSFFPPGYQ
Assay [4] concerns the target FcRn-p3 (fusion protein of β2 microglobulin chain and FcRn α-chain fused to bacteriophage protein p3 and CVDE protein) (UniProt P61769). Put plainly: ELISA, purified IgG from YB2/0, vs R593 IgG-WT.
The target in assay [5] is FcγRI (R&D system) (human) (UniProt P12314). Put plainly: ELISA, purified IgG from YB2/0, vs R593 IgG-WT.
Sequence of FcγRI (R&D system) (human) (P12314 16-288 limits assumed): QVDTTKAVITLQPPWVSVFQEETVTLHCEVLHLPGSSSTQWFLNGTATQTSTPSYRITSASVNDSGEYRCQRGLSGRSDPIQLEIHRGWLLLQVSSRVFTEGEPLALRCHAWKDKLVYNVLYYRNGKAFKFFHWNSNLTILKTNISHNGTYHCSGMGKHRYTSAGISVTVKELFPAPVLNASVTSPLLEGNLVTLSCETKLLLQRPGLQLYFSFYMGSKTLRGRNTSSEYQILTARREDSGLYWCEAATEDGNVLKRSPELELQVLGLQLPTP
The target in assay [6] is FcγRIIaR131 (R&D system) (human) (UniProt P12318). In words: ELISA, purified IgG from YB2/0, vs R593 IgG-WT.
Sequence of FcγRIIaR131 (R&D system) (human) (P12318 36-218 H167R limits assumed): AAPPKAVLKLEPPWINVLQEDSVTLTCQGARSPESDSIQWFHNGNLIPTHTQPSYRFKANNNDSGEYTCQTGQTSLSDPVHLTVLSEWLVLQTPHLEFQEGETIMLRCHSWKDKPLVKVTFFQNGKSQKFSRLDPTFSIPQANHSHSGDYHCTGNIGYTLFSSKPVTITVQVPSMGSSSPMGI
Assay [7] has as its target FcγRIIb (R&D system) (human) (UniProt P31994). Put plainly: ELISA, purified IgG from YB2/0, vs R593 IgG-WT.
In assay [8] the target is Recombinant soluble human FcRn (human) (UniProt P55899). In words: SPR (BIAcore X100), FcRn immobilised, pH 6.0. For orientation: In SPR one partner is held on a chip, and binding of the other changes the refractive index at the surface.
Sequence of Recombinant soluble human FcRn (human) (P55899 24-290 limits assumed, chain 1 of 2): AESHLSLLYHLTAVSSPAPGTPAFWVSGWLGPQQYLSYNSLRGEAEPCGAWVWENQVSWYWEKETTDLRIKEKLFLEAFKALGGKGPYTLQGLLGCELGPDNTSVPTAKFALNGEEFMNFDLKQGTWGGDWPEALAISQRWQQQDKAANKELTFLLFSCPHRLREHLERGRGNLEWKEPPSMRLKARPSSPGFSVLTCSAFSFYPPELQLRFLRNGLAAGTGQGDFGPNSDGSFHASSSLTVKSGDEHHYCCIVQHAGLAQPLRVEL
Sequence of Recombinant soluble human FcRn (human) (P61769 21-119 limits assumed, chain 2 of 2, further chain): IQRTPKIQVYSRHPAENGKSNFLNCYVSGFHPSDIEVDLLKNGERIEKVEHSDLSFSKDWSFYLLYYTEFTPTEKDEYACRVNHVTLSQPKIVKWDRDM
Assay [9] has the same target. Put plainly: SPR, FcRn immobilised, pH 6.0; reference R593.
Assay [10] addresses FcγRIIIaF158 (PX Therapeutics, His-tagged) (human) (UniProt P08637). Put plainly: ELISA, purified IgG from YB2/0, vs parent R593-256N/378V/383N/434Y.
Assay [11] addresses FcγRIIaH131 (PX Therapeutics, His-tagged) (human) (UniProt P12318). The description is as above.
Assay [12] addresses FcγRIIIaV158 (R&D system) (human) (UniProt P08637). The description is as above.
Assay [13] concerns the target FcRn-p3 (fusion protein of β2 microglobulin chain and FcRn α-chain fused to bacteriophage protein p3 and CVDE protein) (UniProt P61769). The assay is described as above.
For assay [14], the target named is FcγRI (R&D system) (human) (UniProt P12314). The assay is described as above.
Assay [15] has as its target FcγRIIaR131 (R&D system) (human) (UniProt P12318). The description is as above.
In assay [16] the target is FcγRIIb (R&D system) (human) (UniProt P31994). The description is as above.
Sequence of FcγRIIb (R&D system) (human) (P31994 46-217 limits assumed): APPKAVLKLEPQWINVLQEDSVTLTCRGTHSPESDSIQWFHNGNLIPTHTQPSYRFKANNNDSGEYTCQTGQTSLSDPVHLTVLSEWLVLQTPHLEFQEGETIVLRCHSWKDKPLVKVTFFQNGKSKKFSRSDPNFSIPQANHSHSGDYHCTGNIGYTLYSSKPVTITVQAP
The target in the next assay is Fcγ receptors. Put plainly: cell-based or functional assay.
Assay [17] addresses RhD antigen on RhD+ red blood cells (UniProt Q02161). Put plainly: flow cytometry on RhD+ red blood cells.
Assay [18] has as its target FcγRIIIaF158 (PX Therapeutics, His-tagged) (human) (UniProt P08637). Put plainly: ELISA, purified IgG from YB2/0, vs parent R593-259I/315D/434Y.
In assay [19] the target is FcγRIIaH131 (PX Therapeutics, His-tagged) (human) (UniProt P12318). The description is as above.
Sequence of FcγRIIaH131 (PX Therapeutics, His-tagged) (human) (P12318 34-217 limits assumed): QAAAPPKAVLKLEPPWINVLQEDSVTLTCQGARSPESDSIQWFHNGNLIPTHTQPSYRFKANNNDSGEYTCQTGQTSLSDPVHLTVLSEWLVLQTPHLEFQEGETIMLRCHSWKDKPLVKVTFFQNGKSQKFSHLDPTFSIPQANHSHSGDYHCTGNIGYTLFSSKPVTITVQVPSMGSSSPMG
Assay [20] deals with FcγRIIIaV158 (R&D system) (human) (UniProt P08637). Described as above.
Assay [21] deals with FcRn-p3 (fusion protein of β2 microglobulin chain and FcRn α-chain fused to bacteriophage protein p3 and CVDE protein) (UniProt P61769). Described as above.
Sequence of FcRn-p3 (fusion protein of β2 microglobulin chain and FcRn α-chain fused to bacteriophage protein p3 and CVDE protein) (P61769 21-119, chain 1 of 2): as the sequence (P61769 21-119 limits assumed, chain 2 of 2, further chain) above
Sequence of FcRn-p3 (fusion protein of β2 microglobulin chain and FcRn α-chain fused to bacteriophage protein p3 and CVDE protein) (P55899 24-290, chain 2 of 2, further chain): as the sequence (P55899 24-290 limits assumed, chain 1 of 2) above
The target of assay [22] is FcγRI (R&D system) (human) (UniProt P12314). The description is as above.
The target in assay [23] is FcγRIIaR131 (R&D system) (human) (UniProt P12318). The description is as above.
Assay [24] concerns the target FcγRIIb (R&D system) (human) (UniProt P31994). The assay is described as above.

The values below come from patent US20140378663A1.

Sequence of FcγRIIIaF158 (PX Therapeutics, His-tagged) (human) (P08637 17-208 limits assumed): as the sequence (P08637 17-208 F176V limits assumed) above, with V160F counted along it
Sequence of RhD antigen on RhD+ red blood cells (Q02161 2-417 limits assumed): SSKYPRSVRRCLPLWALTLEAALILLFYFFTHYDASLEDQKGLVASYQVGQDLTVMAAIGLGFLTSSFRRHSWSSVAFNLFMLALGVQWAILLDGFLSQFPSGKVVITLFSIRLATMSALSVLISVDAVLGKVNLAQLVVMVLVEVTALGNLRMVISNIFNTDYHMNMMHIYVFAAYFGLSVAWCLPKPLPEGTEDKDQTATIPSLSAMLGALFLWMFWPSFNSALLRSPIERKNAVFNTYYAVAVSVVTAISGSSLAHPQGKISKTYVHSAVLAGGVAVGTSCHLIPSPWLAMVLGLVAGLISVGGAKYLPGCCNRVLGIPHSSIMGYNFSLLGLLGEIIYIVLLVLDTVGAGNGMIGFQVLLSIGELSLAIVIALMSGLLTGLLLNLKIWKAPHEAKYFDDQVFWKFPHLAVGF

As a reminder, the Kd is the concentration at which binding is half-saturated. For the substance “R593 anti-RhD+ IgG1 variant 256N/294Del/378V/383N/434Y (antibody)”, the Ratio/IgG-WT in assay [1] was determined as 0.1; in assay [2], 0.17; in assay [3] it was 0.1; in assay [4] it was 7.48; in assay [5] it was 0.12; in [6], 0.17. Further, the Ratio/IgG-WT in assay [7] came out at 0.27. In addition, the Kd in assay [8] is 4.23 nM. Also, the Ratio WT/IgG (KD) in assay [9] worked out at 44.9. The ratio to the IgG1 without 294Del stood at 0.11 in assay [10]; 0.17 in assay [11]; 0.1 in assay [12]; 1 in assay [13]; 0.05 in assay [14]; 0.16 in assay [15]. The ratio to the IgG1 without 294Del in assay [16] was determined as 0.17. The same substance displayed an ADCC EC50 (ng/ml), lysis of RhD+ red cells with Fcγ receptors of 75.9 ng/mL. The substance also showed an ADCC Max. Lysis (%) with Fcγ receptors of 6%. Further, in assay [17], the Ag binding MFI (Arbitrary Unit) was found to be 44.7.
Regarding “R593 anti-RhD+ IgG1 variant 259I/294Del/315D/434Y (antibody)”, the ratio to the IgG1 without 294Del came out at 0.07 in assay [18]; 0.11 in assay [19]; 0.07 in [20]; 0.91 in assay [21]; 0.12 in assay [22]; 0.11 in assay [23]. For the same substance, the ratio to the IgG1 without 294Del in assay [24] came out at 0.13. Further, the Ratio/IgG-WT in assay [1] amounted to 0.07; in assay [2], 0.1; in assay [3] it was 0.07; in [4] it was 7.19; in [5], 0.13; in assay [6], 0.12. The Ratio/IgG-WT in assay [7] amounted to 0.18. Further, the Kd in assay [8] turned out to be 20.2 nM. The Ratio WT/IgG (KD) in assay [9] is 9.41. For the same substance, in the assay with Fcγ receptors, the ADCC EC50 (ng/ml), lysis of RhD+ red cells turned out to be 75.9 ng/mL. In addition, the ADCC Max. Lysis (%) with Fcγ receptors amounted to 4%. For the same substance, the Ag binding MFI (Arbitrary Unit) in assay [17] stood at 47.9.
